Assays:
Cynomolgus CD3ε/δ = Cynomolgus CD3ε/δ (Macaca fascicularis, UniProt Q95LI5); experiment: Binding of DART-A to CD3 (ka, kd, KD); set-up: species or system cynomolgus monkey
Kasumi-3 = experiment: Redirected killing of target cell line; format: cell-based, human
U937 cells = experiment: Activity against CD123-negative targets; format: cell-based
[1] = test system: primary AML specimens (BMNC, PBMC); experiment: Incubation of primary AML bone marrow samples with DART-A; format: cell-based, human
Source text: (§1) Upregulation of granzyme B and perforin levels in both CD8 and CD4 T cells was observed.

[2] = test system: primary ALL bone marrow samples; experiment: Incubation of primary ALL bone marrow samples with DART-A; format: cell-based, human; conditions: vs untreated control or Control DART
Source text: as §1

[3] = test system: pDCs in cynomolgus monkey PBMCs; experiment: pDC depletion in PBMCs; format: cell-based
Source text: as §1

pDCs in human PBMCs = experiment: pDC depletion in PBMCs; format: cell-based
Source text: as §1

[4] = Sub-visible particle count, light obscuration (HIAC); format: physicochemical; conditions: for Subvisible Particles by USP <788> ≥2 μm/mL / Subvisible Particles by USP <788> ≥10 μm/mL / Subvisible Particles by USP <788> ≥25 μm/mL: Stabilizer 2
[5] = 10 ng/mL dosing solution, Post Infusion (Infusion Time = 48 Hrs)
[6] = 10 ng/mL dosing solution, Post Storage (T = 72 Hrs), room temperature
[7] = 10 ng/mL dosing solution, T = 0
[8] = 20 ng/mL dosing solution, Post Infusion (Infusion Time = 96 Hrs)
[9] = 20 ng/mL dosing solution, Post Storage (T =72 Hrs), room temperature
[10] = 20 ng/mL dosing solution, T = 0
[11] = 1250 ng/mL dosing solution, Post Infusion (Infusion Time = 48 Hrs)
[12] = 1250 ng/mL dosing solution, Post Storage (T = 72 Hrs), room temperature
[13] = 1250 ng/mL dosing solution, T = 0
[14] = Study 1, dual-pump infusion, High (5000 ng/mL), T = 0

Chain of Cynomolgus CD3ε/δ (Q95LI5 22-117 limits assumed): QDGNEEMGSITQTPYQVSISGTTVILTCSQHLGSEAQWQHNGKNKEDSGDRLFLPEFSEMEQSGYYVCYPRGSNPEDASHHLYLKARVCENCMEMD
Chain of Cynomolgus CD3ε/δ (Q95LI8 22-105 partner limits assumed): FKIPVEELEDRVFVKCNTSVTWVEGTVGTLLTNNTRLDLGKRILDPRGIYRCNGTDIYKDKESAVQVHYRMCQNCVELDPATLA

B1: DART-A: sequence-optimized CD123×CD3 bispecific diabody; chains SEQ ID NO:42 and SEQ ID NO:44 covalently bonded by a disulfide bond (protein)
chain 1: QAVVTQEPSLTVSPGGTVTLTCRSSTGAVTTSNYANWVQQKPGQAPRGLIGGTNKRAPWTPARFSGSLLGGKAALTITGAQAEDEADYYCALWYSNLWVFGGGTKLTVLGGGGSGGGGEVQLVQSGAELKKPGASVKVSCKASGYTFTDYYMKWVRQAPGQGLEWIGDIIPSNGATFYNQKFKGRVTITVDKSTSTAYMELSSLRSEDTAVYYCARSHLLRASWFAYWGQGTLVTVSSGGCGGGEVAALEKEVAALEKEVAALEKEVAALEK
chain 2: DFVMTQSPDSLAVSLGERVTMSCKSSQSLLNSGNQKNYLTWYQQKPGQPPKLLIYWASTRESGVPDRFSGSGSGTDFTLTISSLQAEDVAVYYCQNDYSYPYTFGQGTKLEIKGGGSGGGGEVQLVESGGGLVQPGGSLRLSCAASGFTFSTYAMNWVRQAPGKGLEWVGRIRSKYNNYATYYADSVKDRFTISRDDSKNSLYLQMNSLKTEDTAVYYCVRHGNFGNSYVSWFAYWGQGTLVTVSSGGCGGGKVAALKEKVAALKEKVAALKEKVAALKE
modifications: interchain disulfide bond; First Polypeptide Chain of DART-A; Second Polypeptide Chain of DART-A
Cynomolgus CD3ε/δ
  ka (± SD): 5.5 (± 0.5) × 10^5 M^−1s^−1
  kd (± SD): 5.0 (± 0.9) × 10^−3 s^−1
Cynomolgus CD3ε/δ; read-out: KD (± SD)
  Kd: 9.2 ± 2.3 nM
Kasumi-3
  Max % Killing: 94%
U937 cells
  activity against CD123-negative targets: No activity
[1]
  leukemic cell population: depletion of the leukemic cell population over time
  residual T cells (CD4 and CD8): expansion of the residual T cells
[2]
  leukemic cell population: depletion of the leukemic cell population over time
[3]
  depletion of pDCs: capable of mediating the depletion of pDCs cells
pDCs in human PBMCs
  depletion of pDCs: capable of mediating the depletion of pDCs cells
[4]; [5]
  Subvisible Particles by USP <788> ≥2 μm/mL: 140 mL⁻¹
  Subvisible Particles by USP <788> ≥10 μm/mL: 2 mL⁻¹
  Subvisible Particles by USP <788> ≥25 μm/mL: 1 mL⁻¹
[4]; [6]
  Subvisible Particles by USP <788> ≥2 μm/mL: 192 mL⁻¹
  Subvisible Particles by USP <788> ≥10 μm/mL: 10 mL⁻¹
  Subvisible Particles by USP <788> ≥25 μm/mL: 1 mL⁻¹
[4]; [7]
  Subvisible Particles by USP <788> ≥2 μm/mL: 206 mL⁻¹
  Subvisible Particles by USP <788> ≥10 μm/mL: 7 mL⁻¹
  Subvisible Particles by USP <788> ≥25 μm/mL: 1 mL⁻¹
[4]; [8]
  Subvisible Particles by USP <788> ≥2 μm/mL: 85 mL⁻¹
  Subvisible Particles by USP <788> ≥10 μm/mL: 9 mL⁻¹
  Subvisible Particles by USP <788> ≥25 μm/mL: 3 mL⁻¹
[4]; [9]
  Subvisible Particles by USP <788> ≥2 μm/mL: 412 mL⁻¹
  Subvisible Particles by USP <788> ≥10 μm/mL: 8 mL⁻¹
  Subvisible Particles by USP <788> ≥25 μm/mL: 0 mL⁻¹
[4]; [10]
  Subvisible Particles by USP <788> ≥2 μm/mL: 344 mL⁻¹
  Subvisible Particles by USP <788> ≥10 μm/mL: 8 mL⁻¹
  Subvisible Particles by USP <788> ≥25 μm/mL: 0 mL⁻¹
[4]; [11]
  Subvisible Particles by USP <788> ≥2 μm/mL: 188 mL⁻¹
  Subvisible Particles by USP <788> ≥10 μm/mL: 4 mL⁻¹
  Subvisible Particles by USP <788> ≥25 μm/mL: 1 mL⁻¹
[4]; [12]
  Subvisible Particles by USP <788> ≥2 μm/mL: 146 mL⁻¹
  Subvisible Particles by USP <788> ≥10 μm/mL: 7 mL⁻¹
  Subvisible Particles by USP <788> ≥25 μm/mL: 1 mL⁻¹
[4]; [13]
  Subvisible Particles by USP <788> ≥2 μm/mL: 664 mL⁻¹
  Subvisible Particles by USP <788> ≥10 μm/mL: 21 mL⁻¹
  Subvisible Particles by USP <788> ≥25 μm/mL: 1 mL⁻¹
[4]; Stabilizer 2 dosing solutions
  subvisible particle counts ≥2 μm, ≥10 μm and ≥25 μm post-infusion vs T=0: did not increase
[4]; [14]
  Particle Counts/mL ≥10 μm: 14 Counts/mL
  Particle Counts/mL ≥25 μm: 1 Counts/mL
[4]; Study 1, dual-pump infusion, High (5000 ng/mL), T = 24 hours
  Particle Counts/mL ≥10 μm: 2 Counts/mL
